The assay concerns the target C3b (UniProt P01024). The experiment in a line: cell-based or functional assay.

Sequence of C3b (P01024 749-1663 limits assumed, chain 1 of 2): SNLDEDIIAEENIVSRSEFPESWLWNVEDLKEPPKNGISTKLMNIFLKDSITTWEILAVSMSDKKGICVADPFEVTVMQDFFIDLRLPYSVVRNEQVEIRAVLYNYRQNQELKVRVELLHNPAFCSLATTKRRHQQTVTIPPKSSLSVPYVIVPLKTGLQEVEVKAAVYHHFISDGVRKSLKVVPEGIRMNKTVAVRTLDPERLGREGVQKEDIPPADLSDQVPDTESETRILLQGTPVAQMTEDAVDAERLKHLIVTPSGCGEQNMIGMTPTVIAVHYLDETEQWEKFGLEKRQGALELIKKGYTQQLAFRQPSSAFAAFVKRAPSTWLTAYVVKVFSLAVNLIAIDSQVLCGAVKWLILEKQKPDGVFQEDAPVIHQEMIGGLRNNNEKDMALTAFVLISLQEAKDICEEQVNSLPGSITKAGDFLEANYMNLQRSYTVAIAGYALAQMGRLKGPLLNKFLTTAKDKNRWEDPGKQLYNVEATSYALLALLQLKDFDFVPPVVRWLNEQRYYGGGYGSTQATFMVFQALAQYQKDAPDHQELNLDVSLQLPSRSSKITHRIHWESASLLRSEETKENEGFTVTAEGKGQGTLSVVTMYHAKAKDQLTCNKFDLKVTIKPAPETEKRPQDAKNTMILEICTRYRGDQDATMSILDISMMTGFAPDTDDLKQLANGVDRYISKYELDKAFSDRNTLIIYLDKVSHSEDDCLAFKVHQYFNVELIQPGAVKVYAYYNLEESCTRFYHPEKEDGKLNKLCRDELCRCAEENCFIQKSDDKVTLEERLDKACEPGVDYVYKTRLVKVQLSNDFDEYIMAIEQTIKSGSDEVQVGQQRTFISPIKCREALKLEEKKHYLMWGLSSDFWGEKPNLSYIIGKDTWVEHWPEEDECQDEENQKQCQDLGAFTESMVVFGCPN
Sequence of C3b (P01024 23-667 limits assumed, chain 2 of 2): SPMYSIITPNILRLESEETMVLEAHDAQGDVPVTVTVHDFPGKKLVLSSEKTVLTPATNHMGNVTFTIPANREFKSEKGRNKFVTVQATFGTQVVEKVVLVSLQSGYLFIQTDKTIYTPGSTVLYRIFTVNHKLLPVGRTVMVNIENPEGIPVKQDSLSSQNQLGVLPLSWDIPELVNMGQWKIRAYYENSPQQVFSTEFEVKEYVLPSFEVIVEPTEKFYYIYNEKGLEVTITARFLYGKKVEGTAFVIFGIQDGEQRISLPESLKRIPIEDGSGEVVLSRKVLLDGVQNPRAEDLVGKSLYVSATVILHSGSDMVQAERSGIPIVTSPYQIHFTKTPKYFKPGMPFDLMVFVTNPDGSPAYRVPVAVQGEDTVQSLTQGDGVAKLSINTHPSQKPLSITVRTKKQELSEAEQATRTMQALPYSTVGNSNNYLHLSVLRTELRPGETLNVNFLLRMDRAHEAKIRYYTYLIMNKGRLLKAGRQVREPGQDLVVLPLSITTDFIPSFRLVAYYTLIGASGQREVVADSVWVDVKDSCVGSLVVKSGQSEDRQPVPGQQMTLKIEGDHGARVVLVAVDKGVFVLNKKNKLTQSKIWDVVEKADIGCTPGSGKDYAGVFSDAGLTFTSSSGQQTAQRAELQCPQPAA

Regarding “soluble human CR1 (from UniProt P17927 42-1971) (receptor)”, the speed as cofactor in the degradation of C3b, against SPICEhis is over 2 fold.
